Test [1] addresses T1, recombinant human interleukin-6 (human, UniProt P05231 30-212).
T1 construct: Recombinant human IL-6 came from several suppliers; also called IL-6; rhIL-6
The experiment in a line: cell-based or functional assay.

In test [2] the target is T1, recombinant human interleukin-6. As to the kind of experiment: Luminex-based assay of IL-6 binding to IL-6 receptor.
The target is the same in test [3]. The experiment in a line: solid-phase ELISA on coated rIL-6 and solid-phase RIA with 125I-rIL-6, hybridoma supernatant.

This is an account of results in patent JP2014195458A (dated 2014).

T1 sequence (P05231 30-212 limits assumed): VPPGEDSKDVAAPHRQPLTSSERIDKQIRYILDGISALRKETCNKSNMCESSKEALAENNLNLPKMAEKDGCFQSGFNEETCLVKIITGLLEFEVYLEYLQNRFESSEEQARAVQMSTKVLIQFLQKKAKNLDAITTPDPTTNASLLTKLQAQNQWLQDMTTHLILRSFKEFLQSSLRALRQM

B1: mouse anti-IL-6 monoclonal antibody CLB-8 (antibody, V domains shown)
VH: EVQLVESGGKLLKPGGSLKLSCAASGFTFSSFAMSWFRQSPEKRLEWVAEISSGGSYTYYPDTVTGRFTISRDNAKNTLYLEMSSLRSEDTAMYYCARGLWGYYALDYWGQGTSVTVSS
VL: QIVLIQSPAIMSASPGEKVTMTCSASSSVSYMYWYQQKPGSSPRLLIYDTSNLASGVPVRFSGSGSGTSYSLTISRMEAEDAATYYCQQWSGYPYTFGGGTKLEIK
notes: also called CLB-IL6-8; CLB.IL-6/8
With B1, in test [1], the IL−6依存性7TD1細胞増殖バイオアッセイ came to 100% and the IL−6誘発性細胞増殖の阻害 (7TD1 cells, ATP luminescence), EC 50 amounted to 7.2 ng/mL. In addition, in test [2], the percent inhibition of IL-6 binding to IL-6 receptor amounted to 100%. For the same molecule, the binding result in test [3] is given as “binds”.
